Here are results for three molecules from patent US8455435B2, “Remedies for ischemia” (Ludwig-Maximilians-Universitat Munchen, priority 2006, dated 2013).

Assay [1] deals with CXCR4 (Mus musculus, UniProt P70658). Conditions: 48 hours after MI; cited from earlier work.
Assay [2] concerns CD45+/CD34+ and CD34+/CXCR4+ cells in the heart. Description: Flow cytometry of non myocyte cardiac cells after MI. It is filed as in vivo, C57BL/6 and CD26 k.o. mice. Conditions: AMD3100 1.25 mg/kg i.p. in G-CSF treated CD26 k.o. and G-CSF-DipA animals. The procedure:
FIGS. 27A, 27C, 27E, Tab. S 3A; Nr. 2: FIGS. 27B, 27D, 27F, Tab. S 3B). Animal care and all experimental procedures were performed in strict accordance to the Guide for the Care and Use of Laboratory Animals published by the US National Institutes of Health (NIH publication No. 85-23, revised 1996). Mice were randomly divided into the following groups: […] G-CSF and/or Diprotin A treatment was initiated immediately after the surgical procedure. Cardiac cells from sham operated and infarcted hearts of wt and CD26 k.o. mice were analyzed 48 hours after MI (n=6). Therefore, a “myocyte-depleted” cardiac cell population was prepared, incubating minced myocardium in 0.1% collagenase IV (Gibco BrL) 30 min at 37° C., lethal to most adult mouse cardiomyocytes (Zhou et al., 2000). Cells were then filtered through a 70-μm mesh. […] Cells were stained with CD45-PerCP, CD34-FITC, CD26-FITC, c-kit-PE, Sca-1-PE, CXCR4-PE Flk-1, Flk-PE, CD3-biotin, CD45R/B220-biotin, CD11b-biotin, TER-119-biotin, Ly-6G-biotin Abs (all from BD Pharmingen) and subjected to flow cytometry using […] flow cytometer and Expo32 ADC Xa software (Beckman Coulter). For evaluation of SDF-1-CXCR4 dependent homing, G-CSF stimulated CD26 k.o. mice were treated i.p. with the CXCR4-antagonist AMD3100 (1.25 mg/kg). Cardiac cells were analyzed 8 hours after the last AMD3100 application. Each analysis included 50000 events.
A general note: In flow cytometry, cells or beads pass a laser one at a time.

Assay [3] relates to cortical infarct. Conditions: permanent middle cerebral artery occlusion; cited from earlier work.
Assay [4] deals with myocardial infarction. Description: Survival after MI (Kaplan-Meier; G-CSF, Diprotin A). It is filed as in vivo, C57BL/6 and CD26 k.o. mice. The procedure:
(§1) MI was induced in 10 weeks old male CD26 k.o. or C57BL/6 mice by surgical occlusion of the left anterior descending artery (LAD) as described previously (Deindl et al., 2006). Experiments concerning survival and cardiac function were performed by two different operators (Nr. 1: FIGS. 27A, 27C, 27E, Tab. S 3A; Nr. 2: FIGS. 27B, 27D, 27F, Tab. S 3B). Animal care and all experimental procedures were performed in strict accordance to the Guide for the Care and Use of Laboratory Animals published by the US National Institutes of Health (NIH publication No. 85-23, revised 1996).
(§2) Mice were randomly divided into the following groups: Sham operated animals (n=20), infarcted wildtyp (n=20) (wt) receiving either saline (0.9% NaCl), G-CSF (100 μg/kg/d i.p.), Diprotin A (70 μg/kg/twice per day) or G-CSF+Diprotin A and CD26 k.o. animals (n=20) receiving either saline (0.9% NaCl) or G-CSF (100 μg/kg/d) for up to 6 days. G-CSF and/or Diprotin A treatment was initiated immediately after the surgical procedure.
Results were expressed as mean±s.e.m. Multiple group comparisons were performed by one-way analyses of variance (ANOVA) followed by the Bonferroni procedure for comparison of means. Comparisons between two groups were performed using the unpaired Student's t-test. Data were considered statistically significant at a value of p≦0.05. Mortality was analyzed by the Kaplan-Meier-method.

Assay [5] concerns TUNEL positive cardiomyocytes. Description: TUNEL staining of apoptotic cardiomyocytes in the border zone after MI. It is filed as in vivo, wt and CD26-/- mice. Conditions: 2 days after MI, wt and CD26-/- animals, vs saline. Here is the method:
as §2
(§3) For immunostaining the following primary antibodies were used: CD45 (rat anti-mouse, BD Pharmingen), CD31 (goat anti-mouse, Santa Cruz), Ki67 (goat anti-mouse, Santa Cruz). AEC was used as chromogen. Double staining for CD31 and Ki67 was performed using DAB as additional chromogen (all from Dako). Apoptotic cells were detected according to Harada et al. 2005 (Harada et al., 2005) using the TUNEL assay (ApopTag, MP Biomedicals). Digital photographs were taken at a magnification of ×400, and 10 random high-power fields (HPF) from the borderzone of each heart sample (n=3) were analyzed. Quantification of blood vessels was assessed by CD31^+ immunohistochemistry in the granulation tissue at the border zone. The numbers of CD31^+ capillaries were quantified from 10 random high power fields (HPF) with 400× magnification.

For assay [6], the system named is CD45+/CD34+ progenitors. Description: FACS of peripheral blood, stem cell mobilization by G-CSF. It is filed as in vivo, C57BL/6 and CD26 k.o. mice. To be noted: G-CSF 100 μg/kg/d; wt (+/-Diprotin A) and CD26 k.o. mice vs saline. Here is the method: 10 weeks old CD26 k.o. (n=6) were either treated with G-CSF (100 μg/kg/d) or saline daily for 6 days and or C57BL/6 mice (n=6) were treated with saline, G-CSF, Diprotin A or both daily for 6 days. Cells were separated as described previously (Deindl et al., 2006). The following monoclonal antibodies were used: CD45-PerCP, CD34-FITC, CD31-PE, c-kit-PE, Sca-1-PE, CXCR4-PE, Flk-PE, CD3-biotin, CD45R/B220-biotin, CD11b-biotin, TER-119-biotin, Ly-6G-biotin (all from BD Pharmingen). Matching isotype antibodies (BD Pharmingen) served as controls. Cells were analyzed by 3-color flow cytometry using a Coulter® Epics® XL-MCL™ flow cytometer (Beckman Coulter). Each analysis included 50000 events.

Assay [7] has as its system myocardial function. The assay can be described thus: Pressure volume relations four weeks after MI (G-CSF, Diprotin A). To be noted: day 30, CD26 k.o. mice. It is filed as in vivo, C57BL/6 and CD26 k.o. mice. Here is the method: as §1, §2
For evaluation of pressure-volume relationships in vivo, mice were anesthetised with thiopental (100 mg/kg, i.p.), intubated and ventilated (MiniVent, HUGO SACHS, Freiburg, Germany). After catheterization via the right carotid artery an impedance-micro manometer catheter (Millar Instruments, Houston, Tex.) was introduced into the left ventricle. Raw conductance volumes were corrected for parallel conductance by the hypertonic saline dilution method as described previously (Zaruba et al., 2008). Heamodynamic measurements as well as data analyses were performed by a blinded person using PVAN analysis software (HUGO SACHS, March, Germany).

Assay [8] concerns CD45+/CD34+ and CD45+/CD34- cell populations in peripheral blood. Description: Flow cytometry of peripheral blood mononuclear cells after PTH or G-CSF in healthy mice. Conditions: PTH day 6 and day 14; G-CSF day 6. It is filed as in vivo, C57BL/6 mice. The procedure:
(§4) For the experiments healthy age- and sex-matched (male, 8-12 weeks of age) C57BL/6 mice (Charles River) were used. Animal care and all experimental procedures were performed in strict accordance to the German and National Institutes of Health animal legislation guidelines and were approved by the local animal care and use committees.
(§5) Mice were divided into the following groups: 1) administration of saline daily for 6 days, sacrificed at day 7 (n=6). 2) administration of PTH (Bachem) daily for 6 consecutive days (80 μg per kg body weight per day, intraperitoneally), sacrificed at day 7 (n=6). 3) administration of PTH daily for 14 consecutive days, sacrificed at day 15 (n=6). 4) administration of G-CSF (Amgen Biologicals) daily for 5 consecutive days (200 μg per kg body weight per day, intraperitoneally), sacrificed at day 6 (n=6).
(§6) at day 6, 1 ml of peripheral blood was harvested from each mouse by aspirating the carotid artery. Bone marrow cells were obtained by flushing the tibias and femurs from the euthanized mice. Mononuclear cells were separated by density-gradient centrifugation using 1.077 g/mL Histopaque solution (Sigma Chemicals), purified and resuspended in phosphate-buffered saline (PBS) containing 1% bovine serum albumin. Cells were incubated for 40 minutes in the dark at 4° C. with following fluorescein-isothiocyanate (FITC), phycoerythrin (PE), and peridinin-chlorphyll-protein (PerCP) conjugated monoclonal antibodies: CD45-PerCP, C34-FITC, CD31-PE, Sca-1-PE and c-kit-PE (all from BD Pharmingen). Isotype-identical antibodies (BD Pharmingen) served as controls. Cells were analyzed by 3-color flow cytometry using a Coulter® Epics® XL-MCL™ flow cytometer (Beckman Coulter). Each analysis included 20000 events. The absolute number of antigen-positive cells per ml of whole blood was calculated by multiplying the percentage of antigen-positive cells with the total number of mononuclear cells per ml of blood detected by the conventional hematological cell analyzer. The number of lymphocytes together with the number of monocytes comprised the total number of mononuclear cells.

Assay [9] deals with CD45+/CD34+ and CD45+/CD34- cell populations in bone marrow. The assay can be described thus: Flow cytometry of bone marrow cells after PTH or G-CSF in healthy mice. It is filed as in vivo, C57BL/6 mice. The procedure: as §4, §5, §6
Assay [10] concerns infarcted heart. The assay can be described thus: Histology and immunohistochemistry after MI: infarct size, LV wall thickness, CD31+ capillaries (G-CSF, Diprotin A). It is filed as in vivo, C57BL/6 and CD26 k.o. mice. The procedure:
as §1, §2
At day 6 (n=6) and day 30 (n=6), hearts were excised. After fixation in 4% phosphate buffered formalin the hearts were cut transversally into 2 mm thick slices and embedded in paraffin. 4 μm thick sections were cut and mounted on positively charged glass slides. […] Infarct size and wall thickness were determined according to Deindl et al. (Deindl et al., 2006).
as §3, with “AEC was used as chromogen. Double staining for CD31 and Ki67 was performed using DAB as additional chromogen (all from Dako).” left out

“Also recorded” adds a separate entry of the source.

CXCR4, sequence (P70658 whole entry): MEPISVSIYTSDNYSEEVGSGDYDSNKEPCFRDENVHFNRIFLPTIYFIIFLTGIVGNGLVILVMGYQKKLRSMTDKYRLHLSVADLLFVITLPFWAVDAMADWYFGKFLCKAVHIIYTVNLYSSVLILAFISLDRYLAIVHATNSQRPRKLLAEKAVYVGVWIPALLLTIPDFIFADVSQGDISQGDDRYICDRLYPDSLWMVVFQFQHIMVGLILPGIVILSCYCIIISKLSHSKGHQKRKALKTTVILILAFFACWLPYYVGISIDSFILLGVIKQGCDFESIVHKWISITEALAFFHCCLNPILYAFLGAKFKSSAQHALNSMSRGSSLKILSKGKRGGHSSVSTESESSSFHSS

As for `c1cc(CN2CCCNCCNCCCNCC2)ccc1CN1CCCNCCNCCCNCC1` [AMD3100], the “decrease of bone marrow derived cell recruitment after MI” value in assay [1] is recorded as 64%. In addition, the “recruitment of CD34+/CXCR4+ cells into the heart after MI” value in assay [2] was “diminished the number; also recorded: reversed the recruitment”.

In the case of “PTHrP(1-34): parathyroid hormone-related peptide fragment 1-34, SEQ ID NO:7”, in assay [3], the “decrease of cortical infarct size” value is “up to 47%”.

B1: G-CSF: granulocyte colony stimulating factor (Amgen Biologicals) (protein, UniProt P09919 31-207, looked up)
Granulocyte …: TPLGPASSLPQSFLLKCLEQVRKIQGDGAALQEKLVSECATYKLCHPEELVLLGHSLGIPWAPLSSCPSQALQLAGCLSQLHSGLFLYQGLLQALEGISPELGPTLDTLQLDVADFATTIWQQMEELGMAPALQPTQGAMPAFASAFQRRAGGVLVASHLQSFLEVSYRVLRHLAQP
Consider B1, for which the survival rate in assay [4] (CD26 k.o. mice) is listed as 75%. In assay [4] (wt animals), this molecule displayed a survival rate of 55%. For the same molecule, the “number of TUNEL positive cardiomyocytes in the border zone” value in [5] was “decreased apoptotic cell death; also recorded: reduced the number”. Also, the “mobilization of CD45+/CD34+ progenitors in peripheral blood” value in [6] is listed as “significantly increased mobilization”. In assay [7], the “arterial afterload (arterial elastance)” value is given as “markedly reduced”, the “diastolic heart function (isovolumetric relaxation parameter Tau)” value is on record as “improved diastolic heart function” and the “ventricular dilation measured by enddiastolic volumes” value is listed as “attenuated ventricular dilation”. The “subtypes of CD45+/CD34+ and CD45+/CD34- cells in peripheral blood” value in [8] was “significant increase”. Moreover, the “increase of CD45+/CD34- cells in bone marrow compared to saline treated mice” value in assay [9] (G-CSF treatment, p<0.001) is listed as 18.9%. The “subtypes of CD45+/CD34- cells in bone marrow” value in [9] (PTH day 6, G-CSF) is listed as “significantly decreased”. The “subtypes of CD45+CD34+ cells in bone marrow” value in [9] (PTH day 6 or day 14, G-CSF vs control group) is “significant decrease”. For the same molecule, the “number of CD31+ capillaries at the infarct borderzone” value in [10] (6 days after MI, CD26 k.o. animals) is reported as “Increased neovascularization; also recorded: significantly increased number”. In addition, in assay [10] (day 30, CD26 k.o. animals), the “size of LV infarction (scar tissue)” value is on record as “smaller” and the “thickness of the left ventricular wall” value was “significantly improved thickness; also recorded: significantly ameliorated”.
